Laboratory results reported in US20230295327A1 (published 2023).
Like-named read-outs stand apart in the source and are kept apart here.

T1: recombinant human CD20 (human, UniProt P11836 1-297)
T1 chain: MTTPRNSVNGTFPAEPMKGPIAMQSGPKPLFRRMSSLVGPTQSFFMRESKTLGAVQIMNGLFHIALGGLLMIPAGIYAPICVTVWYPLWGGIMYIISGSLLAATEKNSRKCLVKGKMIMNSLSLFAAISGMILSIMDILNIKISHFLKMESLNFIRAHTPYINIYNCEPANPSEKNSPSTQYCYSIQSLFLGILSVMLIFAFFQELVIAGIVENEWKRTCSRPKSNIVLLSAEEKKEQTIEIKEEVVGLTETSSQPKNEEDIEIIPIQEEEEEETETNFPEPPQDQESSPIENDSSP

B1: T2.04 (anti-hu CD20/hu IL-12, hu IgG1 (2 + 1)) (bispecific antibody)
heavy: not shown
light: QIVLSQSPAILSASPGEKVTMTCRASSSVSYIHWFQQKPGSSPKPWIYATSNLASGVPVRFSGSGSGTSYSLTISRVEAEDAATYYCQQWTSNPPTFGGGTKLEIKGGGGSGGGGSGGGGSQIVLSQSPAILSASPGEKVTMTCRASSSVSYIHWFQQKPGSSPKPWIYATSNLASGVPVRFSGSGSGTSYSLTISRVEAEDAATYYCQQWTSNPPTFGGGTKLEIKRTVAAPSVFIFPPSDEQLKSGTASVVCLLNNFYPREAKVQWKVDNALQSGNSQESVTEQDSKDSTYSLSSTLTLSKADYEKHKVYACEVTHQGLSSPVTKSFNRGEC
chain: not shown
B2: T2.05 (anti-hu CD20/hu IL-12 mut2, hu IgG1 (2 + 1)) (bispecific antibody)
heavy: not shown
light: B1 light
chain: not shown
B3: T2.09 (anti-hu CD20/hu IL-12 mut2, hu IgG1 (2 + 1, LC scFv)) (bispecific antibody)
heavy: not shown
light: QIVLSQSPAILSASPGEKVTMTCRASSSVSYIHWFQQKPGSSPKPWIYATSNLASGVPVRFSGSGSGTSYSLTISRVEAEDAATYYCQQWTSNPPTFGGGTKLEIKRTVAAPSVFIFPPSDEQLKSGTASVVCLLNNFYPREAKVQWKVDNALQSGNSQESVTEQDSKDSTYSLSSTLTLSKADYEKHKVYACEVTHQGLSSPVTKSFNRGECGGGGSGGGGSGGGGSQVQLQQPGAELVKPGASVKMSCKASGYTFTSYNMHWVKQTPGRGLEWIGAIYPGNGDTSYNQKFKGKATLTADKSSSTAYMQLSSLTSEDSAVYYCARSTYYGGDWYFNVWGAGTTVTVSAGGGGSGGGGSGGGGSGGGGSQIVLSQSPAILSASPGEKVTMTCRASSSVSYIHWFQQKPGSSPKPWIYATSNLASGVPVRFSGSGSGTSYSLTISRVEAEDAATYYCQQWTSNPPTFGGGTKLEIK
chain: not shown
B4: T2.08 (anti-hu CD20/hu IL-12, hu IgG1 (2 + 1, LC scFv)) (bispecific antibody)
heavy: not shown
light: B3 light
chain: not shown
B5: Rituximab (anti-hu CD20 monoclonal antibody) (antibody, V domains shown)
VH: QVQLQQPGAELVKPGASVKMSCKASGYTFTSYNMHWVKQTPGRGLEWIGAIYPGNGDTSYNQKFKGKATLTADKSSSTAYMQLSSLTSEDSAVYYCARSTYYGGDWYFNVWGAGTTVTVSA
VL: QIVLSQSPAILSASPGEKVTMTCRASSSVSYIHWFQQKPGSSPKPWIYATSNLASGVPVRFSGSGSGTSYSLTISRVEAEDAATYYCQQWTSNPPTFGGGTKLEIKR
B6: T2.01 (anti-hu CD20/hu IL-12, hu IgG1) (bispecific antibody)
heavy: not shown
light: QIVLSQSPAILSASPGEKVTMTCRASSSVSYIHWFQQKPGSSPKPWIYATSNLASGVPVRFSGSGSGTSYSLTISRVEAEDAATYYCQQWTSNPPTFGGGTKLEIKRTVAAPSVFIFPPSDEQLKSGTASVVCLLNNFYPREAKVQWKVDNALQSGNSQESVTEQDSKDSTYSLSSTLTLSKADYEKHKVYACEVTHQGLSSPVTKSFNRGEC
chain: not shown
B7: T2.02 (anti-hu CD20/hu IL-12 mut1, hu IgG1) (bispecific antibody)
heavy: not shown
light: B6 light
chain: not shown
B8: T2.06 (anti-hu CD20/hu IL-12, hu IgG1 (2 + 1, HC scFv)) (bispecific antibody)
heavy: not shown
light: B6 light
chain: not shown
B9: T2.10 (anti-hu CD20/anti-hu CD20-hu IL-12, hu IgG1 (2 + 1)) (antibody)
heavy 1: not shown
heavy 2: not shown
light: B6 light
B10: T2.11 (anti-hu CD20/anti-hu CD20-hu IL-12 mut2, hu IgG1 (2 + 1)) (antibody)
heavy 1: not shown
heavy 2: not shown
light: B6 light
B11: T2.07 (anti-hu CD20/hu IL-12 mut2, hu IgG1 (2 + 1, HC scFv)) (bispecific antibody)
heavy: not shown
light: B6 light
chain: not shown

Key:
recombinant human CD20 [1] = target: T1, recombinant human CD20; assay: SPR
recombinant human CD20 [2] = target: T1, recombinant human CD20; assay: SPR
[3] = target: T2, IL-12 receptor beta 1-biotin (IL-12Rβ1-Biotin; Acrobiosystems) (human, UniProt P42701 24-545, biotin (site not stated)); assay: ELISA; control, flat curve
recombinant human CD20 [4] = target: T1, recombinant human CD20; assay: SPR
[5] = target: T2, IL-12 receptor beta 1-biotin …; assay: ELISA

Binder	Kd (recombinant human CD20 [1]) [nM]	Kd (recombinant human CD20 [2]) [nM]	other results
B1	7.58		
B2	2.88		
B3		3.67	
B4		2.08	
B5			EC50 [3]: 25.1 nM
B6			Kd (recombinant human CD20 [4]): 5.84 nM; EC50 [5]: 16.2 nM
B7			Kd (recombinant human CD20 [4]): 7.2 nM; EC50 [5]: 17.6 nM
B8	11.5		
B9		16.6	
B10		1390	
B11	2.84		
